Assay results published in patent publication US20120058906A1 (published 2012).
Each block holds one binder with its values, some of them ahead of it.

Columns and labels:
[1] = target: T1, rHuman Erythropoietin R/Fc Chimera, CF (R&D Systems Cat#963-ER) (human, UniProt P19235 25-250); experiment: ECL (MSD Multi-Spot) binding, antigen spotted on plate, Fab at 1000 nM; blank spot 1133;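 also: blank spot per well as comparator with Hit at signal to blank ratio of 4 or more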
T1 construct: Bought Fc chimera; also called EPO R/Fc; Epo R; Fc part of the bought chimera not given
T1 sequence: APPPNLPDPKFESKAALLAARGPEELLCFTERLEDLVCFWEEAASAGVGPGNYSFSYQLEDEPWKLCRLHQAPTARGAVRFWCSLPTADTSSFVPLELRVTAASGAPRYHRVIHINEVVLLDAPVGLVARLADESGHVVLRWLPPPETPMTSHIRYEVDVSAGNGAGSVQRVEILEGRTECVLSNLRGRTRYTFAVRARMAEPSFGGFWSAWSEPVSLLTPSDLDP

[2] = target: T2, rHuman IGF-1 sR (IGF-1 sR), CF (R&D Systems Cat#391-GR) (human, UniProt P08069 31-932); experiment: as above
T2 construct: Bought soluble receptor; also called insulin-like growth factor-1 soluble receptor; IGF-R1

[3] = target: T3, rHuman Notch-1/Fc Chimera, CF (R&D Systems Cat#3647-TK) (human, UniProt P46531 19-526); experiment: as above
T3 construct: Bought Fc chimera; Fc part of the bought chimera not given

[4] = target: T1, rHuman Erythropoietin R/Fc Chimera, CF …; experiment: ECL (MSD Multi-Spot) binding, antigen spotted on plate, Fab at 15.6 nM; blank spot 294;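 also: blank spot per well as comparator with Hit at signal to blank ratio of 4 or more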
[5] = target: T2, rHuman IGF-1 sR (IGF-1 sR), CF (R&D …); experiment: as above
[6] = target: T3, rHuman Notch-1/Fc Chimera, CF (R&D …); experiment: as above
[7] = target: T1, rHuman Erythropoietin R/Fc Chimera, CF …; experiment: ECL (MSD Multi-Spot) binding, antigen spotted on plate, Fab at 31.3 nM; blank spot 250;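 also: blank spot per well as comparator with Hit at signal to blank ratio of 4 or more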
[8] = target: T2, rHuman IGF-1 sR (IGF-1 sR), CF (R&D …); experiment: as above
[9] = target: T3, rHuman Notch-1/Fc Chimera, CF (R&D …); experiment: as above
[10] = target: T1, rHuman Erythropoietin R/Fc Chimera, CF …; experiment: ECL (MSD Multi-Spot) binding, antigen spotted on plate, Fab at 7.8 nM; blank spot 316;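 also: blank spot per well as comparator with Hit at signal to blank ratio of 4 or more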
[11] = target: T2, rHuman IGF-1 sR (IGF-1 sR), CF (R&D …); experiment: as above
[12] = target: T3, rHuman Notch-1/Fc Chimera, CF (R&D …); experiment: as above
[13] = target: T1, rHuman Erythropoietin R/Fc Chimera, CF …; experiment: ECL (MSD Multi-Spot) binding, antigen spotted on plate, Fab at 500 nM; blank spot 680;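 also: blank spot per well as comparator with Hit at signal to blank ratio of 4 or more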
[14] = target: T2, rHuman IGF-1 sR (IGF-1 sR), CF (R&D …); experiment: as above
[15] = target: T3, rHuman Notch-1/Fc Chimera, CF (R&D …); experiment: as above
[16] = target: T1, rHuman Erythropoietin R/Fc Chimera, CF …; experiment: ECL (MSD Multi-Spot) binding, antigen spotted on plate, Fab at 250 nM; blank spot 590;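 also: blank spot per well as comparator with Hit at signal to blank ratio of 4 or more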
[17] = target: T2, rHuman IGF-1 sR (IGF-1 sR), CF (R&D …); experiment: as above
[18] = target: T3, rHuman Notch-1/Fc Chimera, CF (R&D …); experiment: as above
[19] = target: T1, rHuman Erythropoietin R/Fc Chimera, CF …; experiment: ECL (MSD Multi-Spot) binding, antigen spotted on plate, Fab at 62.5 nM; blank spot 268;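 also: blank spot per well as comparator with Hit at signal to blank ratio of 4 or more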
[20] = target: T2, rHuman IGF-1 sR (IGF-1 sR), CF (R&D …); experiment: as above
[21] = target: T3, rHuman Notch-1/Fc Chimera, CF (R&D …); experiment: as above
[22] = target: T1, rHuman Erythropoietin R/Fc Chimera, CF …; experiment: ECL (MSD Multi-Spot) binding, antigen spotted on plate, Fab at 125 nM; blank spot 403;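 also: blank spot per well as comparator with Hit at signal to blank ratio of 4 or more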
[23] = target: T2, rHuman IGF-1 sR (IGF-1 sR), CF (R&D …); experiment: as above
[24] = target: T3, rHuman Notch-1/Fc Chimera, CF (R&D …); experiment: as above
[25] = target: T4, rHuman P-Cadherin/Fc Chimera, CF (R&D Systems Cat#861-PC) (human, UniProt P22223 108-654); experiment: MSD ECL multi-spot assay, antigen spotted on plate, Fab 0.36 uM; blank spot 1948
T4 construct: Bought protein; also called CDH3; Fc part of the bought chimera not given

[26] = target: T5, rHuman Erythropoietin R/Fc Chimera, CF (R&D Systems Cat#963-ER) (human, UniProt P19235 25-250); experiment: as above
T5 construct: Bought protein; also called EPOR; EPO R/Fc; Fc part of the bought chimera not given
T5 sequence: T1 sequence

[27] = target: T6, rHuman HGF R/c-MET/Fc Chimera, CF (R&D Systems Cat#358-MT/CF) (human, UniProt P08581 25-932); experiment: as above
T6 construct: Bought protein; also called HGF R/Fc; hepatocyte growth factor receptor; Fc part of the bought chimera not given

[28] = target: T7, rHuman ErbB2/Fc Chimera, CF (R&D Systems Cat#1129-ER) (human, UniProt P04626 23-652); experiment: as above
T7 construct: Bought protein; also called HER2/neu; human epidermal growth factor 2 receptor; Fc part of the bought chimera not given

[29] = target: T8, rHuman CD44/Fc Chimera, CF (R&D Systems Cat#3660-CD) (human, UniProt P16070 21-220); experiment: as above
T8 construct: Bought protein; Fc part of the bought chimera not given

[30] = target: T9, rHuman IGF-1 sR (IGF-1 sR), CF (R&D Systems Cat#391-GR) (human, UniProt P08069 31-932); experiment: as above
T9 construct: Bought soluble receptor; also called insulin-like growth factor-1 soluble receptor; IGF-R1

ECL signal [1]: 8590
ECL signal [2]: 1670
ECL signal [3]: 2270
ECL signal [4]: 8360
ECL signal [5]: 349
ECL signal [6]: 418
ECL signal [7]: 7880
ECL signal [8]: 385
ECL signal [9]: 563
ECL signal [10]: 6760
ECL signal [11]: 353
ECL signal [12]: 486
ECL signal [13]: 10300
ECL signal [14]: 1330
ECL signal [15]: 1980
ECL signal [16]: 8540
ECL signal [17]: 993
ECL signal [18]: 1240
ECL signal [19]: 7750
ECL signal [20]: 491
ECL signal [21]: 536
ECL signal [22]: 9240
ECL signal [23]: 654
ECL signal [24]: 802
B1: Fab VH1-46_IGHD6-13*01_IGHJ4*01 & B3_IGKJ1*01 (Fab, V domains shown)
VH: QVQLVQSGAEVKKPGASVKVSCKASGYTFTSYYMHWVRQAPGQGLEWMGIINPSGGSTSYAQKFQGRVTMTRDTSTSTVYMELSSLRSEDTAVYYCAREGYSSSWYDYFDYWGQGTLVTVSS
VL: not shown
notes: Tested as a Fab made in E. coli: VH joined to the CH1 of Plasmid A (with Flag and His tags), VL joined to the kappa constant region of Plasmid C; also called VH1-46_IGHD6-13*01_IGH41*01 & B3_IGKJ1*01

ECL signal [25]: 2740
ECL signal [26]: 19400
ECL signal [27]: 2030
ECL signal [28]: 2030
ECL signal [29]: 2480
ECL signal [30]: 1700
B2: Fab VH4-28_IGHD7-27*01_IGHJ1*01 & L2_IGKJ1*01 (Fab, V domains shown)
VH: QVQLQESGPGLVKPSDTLSLTCAVSGYSISSSNWWGWIRQPPGKGLEWIGYIYYSGSTYYNPSLKSRVTMSVDTSKNQFSLKLSSVTAVDTAVYYCARTNWGAEYFQHWGQGTLVTVSS
VL: not shown
